# Measurements: patent US20180125988
# Test system: AC1254 (CCD1-BSRS1-AE713)
# Sequence (chain, as listed by the source): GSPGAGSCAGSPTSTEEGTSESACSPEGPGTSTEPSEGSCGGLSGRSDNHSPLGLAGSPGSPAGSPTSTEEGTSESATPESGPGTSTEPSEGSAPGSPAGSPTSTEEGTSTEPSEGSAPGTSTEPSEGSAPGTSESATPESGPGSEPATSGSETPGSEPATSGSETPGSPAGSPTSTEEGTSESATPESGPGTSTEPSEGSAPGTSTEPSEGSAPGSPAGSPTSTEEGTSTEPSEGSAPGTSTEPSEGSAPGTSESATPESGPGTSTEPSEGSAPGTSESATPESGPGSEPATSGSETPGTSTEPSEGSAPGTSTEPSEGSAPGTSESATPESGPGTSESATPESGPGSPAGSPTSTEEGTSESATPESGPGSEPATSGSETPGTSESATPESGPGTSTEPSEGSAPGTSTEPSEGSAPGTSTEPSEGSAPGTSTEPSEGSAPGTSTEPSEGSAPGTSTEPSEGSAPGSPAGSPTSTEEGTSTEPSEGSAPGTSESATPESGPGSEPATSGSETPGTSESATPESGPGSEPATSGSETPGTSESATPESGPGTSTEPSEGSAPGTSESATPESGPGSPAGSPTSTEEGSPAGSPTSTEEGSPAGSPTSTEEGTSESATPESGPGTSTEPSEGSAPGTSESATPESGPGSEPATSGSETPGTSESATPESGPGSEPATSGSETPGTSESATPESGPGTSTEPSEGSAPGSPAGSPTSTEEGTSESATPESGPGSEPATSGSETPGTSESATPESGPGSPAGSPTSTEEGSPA
# Chain of recombinant mouse MMP-2 (chain, as listed by the source): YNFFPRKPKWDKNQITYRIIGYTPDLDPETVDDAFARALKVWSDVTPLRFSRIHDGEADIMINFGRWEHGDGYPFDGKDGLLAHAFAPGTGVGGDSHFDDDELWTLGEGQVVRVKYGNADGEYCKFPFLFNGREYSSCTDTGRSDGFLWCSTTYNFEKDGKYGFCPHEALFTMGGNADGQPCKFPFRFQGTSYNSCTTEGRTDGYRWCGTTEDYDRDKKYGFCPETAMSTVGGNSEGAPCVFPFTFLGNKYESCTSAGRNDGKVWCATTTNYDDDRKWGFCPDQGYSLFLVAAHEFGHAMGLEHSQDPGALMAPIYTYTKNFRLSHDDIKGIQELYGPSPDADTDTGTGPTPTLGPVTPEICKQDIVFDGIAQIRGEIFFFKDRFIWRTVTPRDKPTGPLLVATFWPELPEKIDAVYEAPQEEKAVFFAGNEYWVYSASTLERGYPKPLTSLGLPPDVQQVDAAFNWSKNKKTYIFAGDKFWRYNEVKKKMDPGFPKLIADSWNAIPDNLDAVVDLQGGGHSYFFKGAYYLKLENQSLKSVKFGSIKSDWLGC
substance,measurement,value
recombinant mouse MMP-2,"proteolytic cleavage at the PCM (SDS-PAGE, C4 RP-HPLC); enzyme:substrate 1:680, 2 h, 37 C","all proteases tested here cleaved the construct as intended, with varying degree of catalytic efficiency"
recombinant human u-plasminogen activator (uPA),"proteolytic cleavage at the PCM (SDS-PAGE, C4 RP-HPLC); enzyme:substrate 1:12.5, 2 h, 37 C","all proteases tested here cleaved the construct as intended, with varying degree of catalytic efficiency"
